# Assays:
# [1] = molecular target: recombinant human OX40 fused to a His-tag (Acro Biosystems, cat. no. OX0-H5224) (human) (UniProt P43489); test: BLI cross-block; first Ab (competitor): IgG1-CD134-INCAGN1949
# [2] = molecular target: recombinant human OX40 fused to a His-tag (Acro Biosystems, cat. no. OX0-H5224) (human) (UniProt P43489); test: BLI cross-block; first Ab (competitor): IgG1-CD134-RG7888
# [3] = molecular target: recombinant human OX40 fused to a His-tag (Acro Biosystems, cat. no. OX0-H5224) (human) (UniProt P43489); test: BLI cross-block; first Ab (competitor): IgG1-CD134-012
# [4] = molecular target: recombinant human OX40 fused to a His-tag (Acro Biosystems, cat. no. OX0-H5224) (human) (UniProt P43489); test: BLI cross-block; first Ab (competitor): IgG1-CD134-49B4-RRE
# [5] = molecular target: recombinant human OX40 fused to a His-tag (Acro Biosystems, cat. no. OX0-H5224) (human) (UniProt P43489); test: BLI cross-block; first Ab (competitor): IgG1-CD134-GBR830
# [6] = molecular target: recombinant human OX40 fused to a His-tag (Acro Biosystems, cat. no. OX0-H5224) (human) (UniProt P43489); test: BLI cross-block; first Ab (competitor): IgG1-CD134-A4453
# [7] = molecular target: recombinant human OX40 fused to a His-tag (Acro Biosystems, cat. no. OX0-H5224) (human) (UniProt P43489); test: BLI cross-block; first Ab (competitor): IgG1-CD134-ABBV368
# [8] = molecular target: recombinant human OX40 fused to a His-tag (Acro Biosystems, cat. no. OX0-H5224) (human) (UniProt P43489); test: BLI cross-block; first Ab (competitor): IgG1-CD134-003-HC6LC2-RR
# [9] = molecular target: recombinant human OX40 fused to a His-tag (Acro Biosystems, cat. no. OX0-H5224) (human) (UniProt P43489); test: BLI cross-block; first Ab (competitor): IgG1-CD134-MEDI0562
# [10] = molecular target: recombinant human OX40 fused to a His-tag (Acro Biosystems, cat. no. OX0-H5224) (human) (UniProt P43489); test: BLI cross-block; first Ab (competitor): IgG1-CD134-007
# [11] = molecular target: recombinant human OX40 fused to a His-tag (Acro Biosystems, cat. no. OX0-H5224) (human) (UniProt P43489); test: BLI cross-block; first Ab (competitor): IgG1-CD134-SF2
# [12] = molecular target: human OX40 with mouse CRD1 (human with mouse CRD1) (UniProt P43489); test: flow cytometry, transfected ExpiCHO-S cells, gMFI (PE)
# Sequence of human OX40 with mouse CRD1 (human with mouse CRD1) (P43489 other isoform, or with tags, fused parts or gaps limits assumed): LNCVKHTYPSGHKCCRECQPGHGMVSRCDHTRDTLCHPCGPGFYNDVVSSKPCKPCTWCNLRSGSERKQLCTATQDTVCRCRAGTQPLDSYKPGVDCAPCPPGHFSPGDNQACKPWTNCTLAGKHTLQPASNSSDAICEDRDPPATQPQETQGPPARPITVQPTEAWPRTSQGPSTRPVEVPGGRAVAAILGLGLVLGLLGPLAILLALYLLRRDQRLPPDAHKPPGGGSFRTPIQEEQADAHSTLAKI
# [13] = molecular target: recombinant human OX40 fused to a His-tag (Acro Biosystems, cat. no. OX0-H5224) (human) (UniProt P43489); test: BLI cross-block; first Ab (competitor): IgG1-CD134-11D4
# [14] = molecular target: recombinant human OX40 fused to a His-tag (Acro Biosystems, cat. no. OX0-H5224) (human) (UniProt P43489); test: BLI cross-block; first Ab (competitor): IgG1-CD134-003
# [15] = molecular target: recombinant human OX40 fused to a His-tag (Acro Biosystems, cat. no. OX0-H5224) (human) (UniProt P43489); test: BLI cross-block; first Ab (competitor): IgG1-CD134-h3C8
# [16] = molecular target: recombinant human OX40 fused to a His-tag (Acro Biosystems, cat. no. OX0-H5224) (human) (UniProt P43489); test: BLI cross-block; first Ab (competitor): IgG1-CD134-IBI101
# [17] = molecular target: recombinant human OX40 fused to a His-tag (Acro Biosystems, cat. no. OX0-H5224) (human) (UniProt P43489); test: BLI cross-block; first Ab (competitor): IgG1-CD134-Hu106
# Sequence of IgG1-CD134-IBI101 (antibody) (VH): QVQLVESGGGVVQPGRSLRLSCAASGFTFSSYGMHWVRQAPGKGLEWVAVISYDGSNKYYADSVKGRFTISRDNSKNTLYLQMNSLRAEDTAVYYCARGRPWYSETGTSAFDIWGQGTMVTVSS
# Sequence of IgG1-CD134-IBI101 (antibody) (VL): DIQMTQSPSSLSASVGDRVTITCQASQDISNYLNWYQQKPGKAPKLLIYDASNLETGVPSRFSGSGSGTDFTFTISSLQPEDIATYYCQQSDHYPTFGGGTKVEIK
# Sequence of recombinant human OX40 fused to a His-tag (Acro Biosystems, cat. no. OX0-H5224) (human) (P43489 29-214 limits assumed): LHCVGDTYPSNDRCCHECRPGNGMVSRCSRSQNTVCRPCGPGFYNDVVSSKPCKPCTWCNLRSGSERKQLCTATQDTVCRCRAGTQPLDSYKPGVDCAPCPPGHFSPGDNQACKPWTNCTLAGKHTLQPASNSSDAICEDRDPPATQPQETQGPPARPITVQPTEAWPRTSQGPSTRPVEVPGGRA
association response [1] [nm],association response [2] [nm],association response [3] [nm],association response [4] [nm],association response [5] [nm],association response [6] [nm],association response [7] [nm],association response [8] [nm],association response [9] [nm],association response [10] [nm],association response [11] [nm],EC50 (read off the curve) [12] [µg/mL],association response [13] [nm],association response [14] [nm],association response [15] [nm],association response [16] [nm],association response [17] [nm],Substance
0.02,0.31,0.82,0,0.01,0.24,-0.02,1.23,0.26,0.02,0.07,0.07,0.15,0.74,-0.03,0.01,-0.02,IgG1-CD134-IBI101 (antibody)
0,0.01,0.73,0,0.01,0.25,-0.03,1.74,0.01,0.55,0.02,0.09,0.11,1.39,-0.02,0.01,-0.01,IgG1-CD134-INCAGN1949 (antibody)
